Source: patent publication US20030143208A1, “Oxidative stress-resistant cell lines and methods of use thereof” (priority 2002, published 2003)
“Also recorded” adds a separate entry of the source. Values belong to the compound of their own block, whether it stands above or below them.

Key:
[1] = system: tyrosine hydroxylase (TH); experiment: Tyrosine hydroxylase activity assay ([3H]H2O release from [3H]tyrosine) of wt- and mutant-TH, with and without peroxynitrite treatment; format: biochemical, rat; settings: nitrating and oxidizing concentrations of peroxynitrite, phosphate buffer 0.1 M, DTPA 0.1 mM, pH 7.4, FIG. 3A
Protocol: (§1) To further confirm the site of nitration in vivo, the tyrosine residues 423, 428, and 432 were individually mutated to Phe. The Tyr423Phe, Tyr428Phe, and Tyr432Phe mutants were created with the QuikChange™ Site-Directed mutagenesis kit from Stratagene as previously described (25). Wild-type rat TH cDNA (GenBank accession no.: NM-012740) was subcloned into the mammalian pcDNA3.1+ expression vector (invitrogen) and used as the DNA template (25 ng) to create the mutants. Complete DNA sequencing data verified the presence of the appropriate mutation in the coding sequences of all recombinant proteins.
(§2) Recombinant wt- and mutant TH were isolated and purified from BL21(DE3)pLysS E. coli expressing the full-length wt-TH, Y423F-TH, Y428F-TH, or Y432F-TH cDNAs. Following isolation enzyme activity was assayed after treatment with peroxynitrite as previously described (25 and 26). Briefly, wt- or mutant-TH were exposed to several concentrations of peroxynitrite under identical conditions, in phosphate buffer 0.1 M containing DTPA 0.1 mM at pH 7.4. The activity of TH was assayed by the release of [^3H]H2O from [^3H]tyrosine in the presence of catalase. The specific activity of the partially purified Tyr423Phe mutant TH was 20% of the wild type TH. It is also shown that the enzyme activity of the wild type, and the Tyr428Phe and Tyr432Phe mutants were inhibited by exposure to nitrating and oxidizing concentrations of peroxynitrite (FIG. 3A). […] Enzymatic activity was assessed using a standard assay and the Lovenberg assay as described in (26) (FIGS. 3B and 3C).

[2] = molecular target: tyrosine hydroxylase (TH) (Rattus norvegicus, UniProt P04177); experiment: Nitration of TH by peroxynitrite in vitro; format: biochemical; settings: recombinantly purified TH treated with peroxynitrite in vitro
From the text: Cysteine, methionine, tryptophan and tyrosine appear to be the principal amino acids in proteins modified by peroxynitrite in vitro (9-14). To resolve the apparent differences, the reaction of peroxynitrite with recombinantly purified rat TH in vitro was re-examined and no evidence of cysteine oxidation was found. Oxidation of one cysteine residue per molecule of TH was observed only at high peroxynitrite concentrations, and three cysteine residues were oxidized in partially unfolded protein.

[3] = molecular target: T1, tyrosine hydroxylase (TH) (Rattus norvegicus, UniProt P04177, Y423F); experiment: Tyrosine hydroxylase activity assay ([3H]H2O release from [3H]tyrosine) of wt- and mutant-TH, with and without peroxynitrite treatment; format: biochemical
T1 construct: E. coli expressing the full-length wt-TH, Y423F-TH, Y428F-TH, or Y432F-TH cDNAs; made in house; host or cells: BL21(DE3)pLysS E. coli
Protocol: as §1, §2

[4] = system: TH in cultured dopaminergic neurons; settings: cultured dopaminergic neurons after MPP+ challenge; Pong et al. (22); cited from earlier work

T1 sequence (P04177 2-498 Y423F): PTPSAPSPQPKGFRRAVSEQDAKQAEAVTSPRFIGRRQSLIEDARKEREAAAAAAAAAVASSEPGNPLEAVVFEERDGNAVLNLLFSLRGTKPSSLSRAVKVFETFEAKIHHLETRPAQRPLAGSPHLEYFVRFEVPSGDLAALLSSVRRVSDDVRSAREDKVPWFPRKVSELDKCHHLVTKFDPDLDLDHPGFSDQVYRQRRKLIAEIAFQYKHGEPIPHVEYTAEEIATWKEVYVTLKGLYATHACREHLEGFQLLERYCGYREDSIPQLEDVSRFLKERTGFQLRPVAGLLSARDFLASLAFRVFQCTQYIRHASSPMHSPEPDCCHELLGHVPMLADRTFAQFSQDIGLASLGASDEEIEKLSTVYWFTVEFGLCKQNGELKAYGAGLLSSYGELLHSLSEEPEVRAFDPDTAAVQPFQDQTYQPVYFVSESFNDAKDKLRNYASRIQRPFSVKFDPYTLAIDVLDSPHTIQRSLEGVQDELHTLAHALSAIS
tyrosine hydroxylase (TH) (Rattus norvegicus, UniProt P04177), sequence (P04177 whole entry): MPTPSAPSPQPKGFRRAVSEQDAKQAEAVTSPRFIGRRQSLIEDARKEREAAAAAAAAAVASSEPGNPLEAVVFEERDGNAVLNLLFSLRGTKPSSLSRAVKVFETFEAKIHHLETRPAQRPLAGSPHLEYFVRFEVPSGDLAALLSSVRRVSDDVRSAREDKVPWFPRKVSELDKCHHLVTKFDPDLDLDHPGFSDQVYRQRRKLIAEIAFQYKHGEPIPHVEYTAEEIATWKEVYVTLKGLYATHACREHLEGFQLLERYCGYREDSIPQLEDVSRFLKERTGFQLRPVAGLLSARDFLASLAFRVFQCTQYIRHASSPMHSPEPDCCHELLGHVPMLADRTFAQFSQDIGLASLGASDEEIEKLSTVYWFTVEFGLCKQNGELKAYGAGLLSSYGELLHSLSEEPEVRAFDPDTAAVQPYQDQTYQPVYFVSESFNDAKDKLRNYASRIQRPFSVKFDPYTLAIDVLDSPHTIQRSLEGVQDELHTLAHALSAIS

Compound: Tyr428Phe: rat tyrosine hydroxylase mutant with tyrosine residue 428 mutated to Phe
- TH enzymatic activity after exposure to peroxynitrite [1]: inhibited

- nitration by peroxynitrite [2]: lack of nitration
- resistance to inactivation by different concentrations of peroxynitrite compared to wild type TH, Lovenberg assay ([3]; cell lysates, Lovenberg assay, FIG. 3C): resist inactivation
- resistance to inactivation by different concentrations of peroxynitrite compared to wild type TH ([3]; cell lysates, standard assay, FIG. 3B): resist inactivation
Compound: Tyr423Phe mutant TH: rat tyrosine hydroxylase in which Tyr423 was substituted with Phe
- specific activity relative to wild type TH ([3]; partially purified protein, % of the wild type TH): 20%
- TH enzymatic activity after exposure to peroxynitrite ([1]; listed as Tyr423 Phe mutant): no significant loss of enzymatic activity
- TH enzymatic activity after exposure to peroxynitrite ([1]; listed as Tyr423Phe mutant): no loss in TH enzymatic activity; also recorded: unaffected

Compound: Tyr432Phe: rat tyrosine hydroxylase mutant with tyrosine residue 432 mutated to Phe
- TH enzymatic activity after exposure to peroxynitrite [1]: inhibited

Compound: COc1cccc(C=NCCN=Cc2cccc(OC)c2[O-])c1[O-].[Cl-].[Mn+3] [EUK134]
- nitration of TH [4]: prevented nitration of TH

Compound: wild type: recombinant wild-type rat tyrosine hydroxylase (GenBank accession no. NM-012740) [reference compound]
- TH enzymatic activity after exposure to peroxynitrite [1]: inhibited
